Several values for one entry are separate records, joined by “and”; a condition that tells them apart may be missing. Identical values can stand only once.
Experiments:
[1] = target: tissue factor extracellular domains (human) (UniProt P13726); assay: SPR, TF immobilised, purified Fab as analyte, 1:1 model
[2] = target: D3H44 light chain F116A_L135V; assay: LCCA (SPR), competitor L1 L135W
[3] = target: D3H44 light chain F116A_L135A; assay: LCCA (SPR), competitor L1 L135W
D3H44 light chain L135W [4] = assay: LCCA (SPR), competitor L2 F116A_L135V
D3H44 light chain L135W [5] = assay: LCCA (SPR), competitor L2 F116A_L135A
[6] = target: D3H44 light chain L135W_N137A; assay: LCCA (SPR), competitor L2 F116A_L135A
[7] = target: D3H44 light chain F116A_L135A; assay: LCCA (SPR), competitor L1 L135W_N137A
[8] = target: D3H44 light chain F118W_V133S; assay: LCCA (SPR), competitor L1 WT
[9] = target: D3H44 light chain, wild type; assay: LCCA (SPR), competitor L2 F118W_V133S
[10] = target: D3H44 light chain F118W_V133S; assay: LCCA (SPR), competitor L1 F116A
D3H44 light chain F116A [11] = assay: LCCA (SPR), competitor L2 F118W_V133S
[12] = target: D3H44 light chain, wild type; assay: LCCA (SPR), competitor L2 F116A
D3H44 light chain F116A [13] = assay: LCCA (SPR), competitor L1 WT

Chain of D3H44 light chain, wild type (light, as listed by the source): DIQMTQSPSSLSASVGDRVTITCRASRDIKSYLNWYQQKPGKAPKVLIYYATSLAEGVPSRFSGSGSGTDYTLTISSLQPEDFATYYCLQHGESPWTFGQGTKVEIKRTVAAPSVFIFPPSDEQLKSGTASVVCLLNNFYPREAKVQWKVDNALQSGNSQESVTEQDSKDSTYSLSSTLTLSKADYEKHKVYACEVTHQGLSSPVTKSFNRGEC
Chain of tissue factor extracellular domains (human) (P13726 33-251): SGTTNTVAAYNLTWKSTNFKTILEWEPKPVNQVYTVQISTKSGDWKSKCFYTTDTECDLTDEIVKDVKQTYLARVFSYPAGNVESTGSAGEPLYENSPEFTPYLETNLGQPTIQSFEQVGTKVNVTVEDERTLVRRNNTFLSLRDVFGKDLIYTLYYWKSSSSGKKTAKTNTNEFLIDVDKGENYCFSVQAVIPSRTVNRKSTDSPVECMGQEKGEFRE
Chain of D3H44 light chain L135W (light, as listed by the source): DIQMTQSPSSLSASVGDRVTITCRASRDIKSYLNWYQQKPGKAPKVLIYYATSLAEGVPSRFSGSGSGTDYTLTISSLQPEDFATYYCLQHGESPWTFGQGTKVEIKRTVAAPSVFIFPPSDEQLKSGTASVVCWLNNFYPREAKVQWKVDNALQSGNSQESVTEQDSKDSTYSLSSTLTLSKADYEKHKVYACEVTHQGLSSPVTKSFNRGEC

**Q.** How did the Kd [1] turn out when “D3H44 Fab Design 11 H1-L1 (H1 S188L_V190Y, L1 V133S)” was run?
**A.** The Kd was 43 pM.

**Q.** Which Kd [1] does the source give for “D3H44 Fab Design 11 H2-L2 (H2 F174V_P175S_S188G, L2 S176L)” here?
**A.** The Kd was 40 pM.

**Q.** With “D3H44 Fab Design 13 H1-L1 (H1 L143A_D144G_Q179R, L1 Q124E_V133W_Q160E_T180E)” as the substance, how does the Kd [1] read?
**A.** Its Kd is 87 pM.

**Q.** How did the Kd [1] turn out when “D3H44 Fab Design 13 H2-L2 (H2 K145T_Q179D_S188F, L2 V133A_Q160K_T178R)” was run?
**A.** The Kd was 86 pM.

**Q.** “D3H44 Fab Design 15 H1-L1 (H1 D146G_Q179R, L1 Q124E_Q160E_T178D)” was tested. Which Kd [1] did it give?
**A.** The Kd was 82 pM.

**Q.** How did the Kd [1] turn out when “D3H44 Fab Design 15 H2-L2 (H2 K145T_Q179D_S188L, L2 Q160K_T178R)” was run?
**A.** The Kd was 71 pM.

**Q.** For “D3H44 Fab Design 30 H1-L1 (H1 D148G_Q175K, L1 Q124E_Q160E_T180E)”, which Kd [1] is on record?
**A.** Its Kd is 24 pM.

**Q.** How did the Kd [1] turn out when “D3H44 Fab Design 30 H2-L2 (H2 L145E_K147T, L2 Q160K_T178R)” was run?
**A.** The Kd was 60 pM.

**Q.** For “D3H44 Fab Design 31 H1-L1 (H1 Q39D_A141G_V185A, L1 Q38R_L135W)”, which Kd [1] is on record?
**A.** The Kd was 25 pM.

**Q.** How did the H1 L2 of H1 L1:H1 L2 (screen) [2] turn out when “D3H44 heavy chain (Fab format) A139G_V190A” was run?
**A.** Its H1 L2 of H1 L1:H1 L2 (screen) is 13.8.

**Q.** What about the H1 L2 of H1 L1:H1 L2 (verification) [2] of the same substance?
**A.** Its H1 L2 of H1 L1:H1 L2 (verification) is 48.3.

**Q.** And the H1 L2 of H1 L1:H1 L2 (screen) [3]?
**A.** Its H1 L2 of H1 L1:H1 L2 (screen) is 10.1.

**Q.** And the H1 L2 of H1 L1:H1 L2 (verification) [3]?
**A.** Its H1 L2 of H1 L1:H1 L2 (verification) is 10.6.

**Q.** And the H1 L1 of H1 L1:H1 L2 (screen) (D3H44 light chain L135W [4])?
**A.** Its H1 L1 of H1 L1:H1 L2 (screen) is 68.4.

**Q.** And the H1 L1 of H1 L1:H1 L2 (verification) (D3H44 light chain L135W [4])?
**A.** Its H1 L1 of H1 L1:H1 L2 (verification) is 49.

**Q.** And the H1 L1 of H1 L1:H1 L2 (screen) (D3H44 light chain L135W [5])?
**A.** Its H1 L1 of H1 L1:H1 L2 (screen) is 65.

**Q.** And the H1 L1 of H1 L1:H1 L2 (verification) (D3H44 light chain L135W [5])?
**A.** The H1 L1 of H1 L1:H1 L2 (verification) was 69.5.

**Q.** And the H1 L1 of H1 L1:H1 L2 (screen) [6]?
**A.** Its H1 L1 of H1 L1:H1 L2 (screen) is 70.5.

**Q.** What about the H1 L2 of H1 L1:H1 L2 (screen) [7] of the same substance?
**A.** Its H1 L2 of H1 L1:H1 L2 (screen) is 5.16.

**Q.** D3H44 heavy chain (Fab format) A139I was tested. Which H2 L2 of H2 L2:H2 L1 (screen) [8] did it give?
**A.** Its H2 L2 of H2 L2:H2 L1 (screen) is 51.9.

**Q.** What about the H2 L1 of H2 L2:H2 L1 (screen) [9] of the same substance?
**A.** The H2 L1 of H2 L2:H2 L1 (screen) was 28.9.

**Q.** With “D3H44 heavy chain (Fab format) A139I_V190S” as the substance, how does the H1 L2 of H1 L1:H1 L2 (screen) [10] read?
**A.** Its H1 L2 of H1 L1:H1 L2 (screen) is 25.1.

**Q.** What about the H1 L2 of H1 L1:H1 L2 (verification) [10] of the same substance?
**A.** The H1 L2 of H1 L1:H1 L2 (verification) was 0.759.

**Q.** What about the H1 L2 of H1 L1:H1 L2 (screen) [8] of the same substance?
**A.** Its H1 L2 of H1 L1:H1 L2 (screen) is 28.

**Q.** And the H1 L2 of H1 L1:H1 L2 (verification) [8]?
**A.** Its H1 L2 of H1 L1:H1 L2 (verification) is 8.2.

**Q.** What about the H1 L1 of H1 L1:H1 L2 (screen) [9] of the same substance?
**A.** Its H1 L1 of H1 L1:H1 L2 (screen) is 67.1.

**Q.** What about the H1 L1 of H1 L1:H1 L2 (verification) [9] of the same substance?
**A.** Its H1 L1 of H1 L1:H1 L2 (verification) is 77.

**Q.** And the H1 L1 of H1 L1:H1 L2 (screen) (D3H44 light chain F116A [11])?
**A.** The H1 L1 of H1 L1:H1 L2 (screen) was 64.7.

**Q.** What about the H1 L1 of H1 L1:H1 L2 (verification) (D3H44 light chain F116A [11]) of the same substance?
**A.** The H1 L1 of H1 L1:H1 L2 (verification) was 59.8.

**Q.** What does the source list for D3H44 heavy chain (Fab format) A139V?
**A.** H2 L2 of H2 L2:H2 L1 (screen) [10]: 63.9; H2 L2 of H2 L2:H2 L1 (verification) [10]: 24.5 and 56.1; H2 L1 of H2 L2:H2 L1 (screen) (D3H44 light chain F116A [11]): 35.7; H2 L1 of H2 L2:H2 L1 (verification) (D3H44 light chain F116A [11]): 56.1 and 24.5

**Q.** “D3H44 heavy chain (Fab format) A139V_V190S” was tested. Which H1 L2 of H1 L1:H1 L2 (screen) [10] did it give?
**A.** Its H1 L2 of H1 L1:H1 L2 (screen) is 35.1.

**Q.** What about the H1 L2 of H1 L1:H1 L2 (verification) [10] of the same substance?
**A.** The H1 L2 of H1 L1:H1 L2 (verification) was 10.1.

**Q.** What about the H1 L2 of H1 L1:H1 L2 (screen) [8] of the same substance?
**A.** Its H1 L2 of H1 L1:H1 L2 (screen) is 35.2.

**Q.** What about the H1 L2 of H1 L1:H1 L2 (verification) [8] of the same substance?
**A.** Its H1 L2 of H1 L1:H1 L2 (verification) is 8.66.

**Q.** And the H1 L1 of H1 L1:H1 L2 (screen) [9]?
**A.** Its H1 L1 of H1 L1:H1 L2 (screen) is 58.8.

**Q.** And the H1 L1 of H1 L1:H1 L2 (verification) [9]?
**A.** The H1 L1 of H1 L1:H1 L2 (verification) was 52.2.

**Q.** And the H1 L1 of H1 L1:H1 L2 (screen) (D3H44 light chain F116A [11])?
**A.** The H1 L1 of H1 L1:H1 L2 (screen) was 68.7.

**Q.** And the H1 L1 of H1 L1:H1 L2 (verification) (D3H44 light chain F116A [11])?
**A.** The H1 L1 of H1 L1:H1 L2 (verification) was 42.1.

**Q.** Which results are given for “D3H44 heavy chain (Fab format) A139W_V190A”?
**A.** H2 L1 of H2 L2:H2 L1 (screen) [12]: 17.8; H2 L1 of H2 L2:H2 L1 (verification) [12]: 19.7; H2 L2 of H2 L2:H2 L1 (screen) (D3H44 light chain F116A [13]): 74.5; H2 L2 of H2 L2:H2 L1 (verification) (D3H44 light chain F116A [13]): 51.4
